Experiments:
[1] = tested on: mice cough induced by ammonia water; experiment: Antitussive test, cough induced by ammonia water in mice; type: in vivo, mouse; conditions: for Incubation period: cough latency; for Incubation period / Number of coughs: X ± SEM; for Number of coughs: within 2 minutes
Procedure: Experimental example 6 The effect of protein BD-4 (Example 4 protein) on the antitussive effect of the cough induced by ammonia water in mice. Animals: male ICR mice; Drugs and reagents: dextromethorphan hydrobromide, ammonia, 0.2% CMC-Na, protein BD-4; Apparatus: Compressed nebulizer (403T type), balance (XS105DU type). Experiment Grouping: • Solvent control group; • Dextromethorphan 15 mg/kg group; • Protein BD-4, 20 mg/kg group, 50 mg/kg group. Method: Model Preparation and Administration:
Dextromethorphan and different doses of protein BD-4 (administration volume 10 ml/kg) were given orally in groups, and the solvent control group was given the same volume of distilled water. One hour later, it was put into a sealed box and atomized 10% ammonia water for 10 seconds, and then observed and recorded the incubation period of cough in mice and the number of coughs in 2 minutes.
Record the time point of oral administration, the time point of atomization experiment, the incubation period of mice cough and the number of coughs within 2 minutes, respectively. The incubation period of cough refers to the number of seconds from the start of the atomization of ammonia to the occurrence of cough. The performance of coughing in mice is based on contraction of their abdominal muscles (breast contraction) and opening their mouths at the same time. Calculate the mean and standard error of each group of data, use TTEST to compare the model group with other groups, and P<0.05 is considered as a significant difference.

[2] = tested on: yeast-induced fever model in rats; experiment: Yeast-induced fever model in SD rats; type: in vivo, rat; conditions: for Body temperature 2 hours after modeling: 2 h after 20% yeast s.c.; for Body temperature 4 hours after modeling: 4 h after 20% yeast s.c.; for Body temperature 6 hours after modeling: 6 h after 20% yeast s.c.; for Body temperature 8 hours after modeling: 8 h after 20% yeast s.c.; for Effect on increase in body temperature of model rats: vs model group P<0.05
Procedure: Experimental example 1 The pharmacodynamic test of protein BD-4 (the protein in Example 4) on the fever model of SD rats induced by yeast
• Normal control group; • Model group: yeast fever model; • Positive control group: Aspirin 300 mg/kg group; • Protein BD-4, 10 mg/kg group, 50 mg/kg group. Method:
Preparation of experimental animals: After the experimental animals adapt to the experimental environment (temperature 22° C.±2° C., relative humidity 50%±2%) for 1 day. Pre-adaptation to measure rectal temperature at 8:00 and 15:00, Rats were fasted and water was taken freely 12 h before experiment. let the animal to empty its feces before measuring the rectal temperature. Apply petroleum jelly to the electronic thermometer probe before each temperature measurement. Insert the rat rectum 2 cm (can be marked at 2 cm to ensure that the depth of each insertion is consistent), and record the body temperature after the reading is stable.
Subcutaneous injection of dry yeast to replicate rat fever model: The body temperature of the rats was measured before modeling. Qualified rats with a body temperature of 36.2-37.3° C. were selected and randomly divided into groups with 8 rats in each group. After oral administration of aspirin and different doses of protein BD-4, 20% yeast suspension (10 ml/kg) was injected subcutaneously immediately, and the normal control group was injected intraperitoneally with an equal volume of normal saline. the rats' body temperature was monitored after 2 hours for a total of 8 hours.
According to the body temperature measured at each time point on the day of the experiment, calculate the mean, standard deviation and standard error of the body temperature of each group of rats. The data of each group was compared with TTEST, and P<0.05 was considered as a significant difference.

[3] = tested on: PLO-induced epilepsy in mice; experiment: Pilocarpine (PLO) induced convulsive epilepsy in mice; type: in vivo, mouse; conditions: for Grade IV seizure rate / mortality rate: 10 mice; for Grade IV seizure rate / mortality rate / Number of deaths / Number of Grade IV cases: PLO 225 mg/kg i.p.; for Number of deaths / Number of Grade IV cases: of 10 mice; for Number of Grade IV cases: 30 min observation; for Level II onset incubation period / Level III onset incubation period / Level IV onset incubation period: mean ± SEM; for Level IV onset incubation period: no grade IV attack recorded as 1800 s
Procedure: Experimental example 3 The pharmacodynamic test of protein BD-4 (Example 4 protein) on convulsive epilepsy in mice caused by the convulsion agent Pilocarpine (PLO)
Model group: • Diazepam (Diazepam) 2 mg/kg group; • Protein BD-4, 50 mg/kg group, 200 mg/kg group. Method: Model Preparation and Administration:
The drug was administered once in the afternoon the day before modeling, PLO-225 mg/kg (modeling agent) was injected intraperitoneally 1 hour after the test drug was given to the stomach on the day of modeling. And positive drug can be administered once 20 minutes before modeling. Observe for 30 minutes after PLO injection.
Observation indicators: 1) Seizure situation: the time of seizures from grade II to grade IV; 2) the time to death.
Attack level: Refer to Racine grading standard: Level 0: No response; Grade I: manifested as twitching of facial muscles or the corners of the mouth; Level II: can nod; Level III: Twitching of one limb; Grade IV: rigidity or body twitching; Grade V: generalized epilepsy (generalized tonic seizures).
Count the number of grade IV seizures and deaths in each group of mice in the experiment; Level II, III and IV incubation period. […] Chi-square test was used for statistics of the number of cases. The mean value and standard error of the incubation period were calculated, and TTEST was used to compare the model group with other groups. P<0.05 was considered as a significant difference.

B1: BD-4: recombinant keratin, amino acid sequence SEQ ID NO: 1, expressed in E. coli; the protein of Example 4 was tested (protein, listed as Bos taurus)
chain: MSYSCCLPNLSFRSSCSSRPCVPSSCCGTTLPGACNIPANVGSCNWFCEGSFNGSEKETMQFLNDRLASYLEKVRQLERDNAELESRILERSQQQEPLVCPNYQSYFRTIEELQQKILCSKSENARLVVQIDNAKLASDDFRTKYETEVSLRQLVEADLNGLRRILDELTLCKSDLEARVESLKEELICLKQNHEQEVNTLRSQLGDRLNVEVDAAPTVDLNRVLNETRAQYEALVETNRRDVEEWYIRQTEELNKQVVSSSEQLQSYQAEIIELRRTVNALEVELQAQHNLRDSLENTLTETEARYSCQLAQVQGLIGNVESQLAEIRSDLERQNQEYQVLLDVRARLECEINTYRGLLDSEDCKLPCNPCATTNACERPCISNPCVSRARCGPCNTFVH
Incubation period ([1]; 20 mg/kg oral): 34.0 ± 2.4 s | Number of coughs ([1]; 20 mg/kg oral): 55.9 ± 3.5 | Cough incubation period vs solvent control group ([1]; 20 mg/kg, P<0.05): significant improvement | Number of coughs vs solvent control group ([1]; 20 mg/kg, P<0.05): significant improvement | Incubation period ([1]; 50 mg/kg oral): 33.2 ± 3.9 s | Number of coughs ([1]; 50 mg/kg oral): 62.1 ± 3.7 | Number of coughs vs solvent control group ([1]; 50 mg/kg, P<0.05): significant improvement | Body temperature 2 hours after modeling ([2]; 10 mg/kg oral): 36.7 ± 0.1 °C | Body temperature 4 hours after modeling ([2]; 10 mg/kg oral): 37.1 ± 0.1 °C | Body temperature 6 hours after modeling ([2]; 10 mg/kg oral): 37.6 ± 0.1 °C | Body temperature 8 hours after modeling ([2]; 10 mg/kg oral): 37.6 ± 0.2 °C | Effect on increase in body temperature of model rats ([2]; 10 mg/kg, 4 hour after modeling): significantly inhibit the increase in body temperature | Body temperature 2 hours after modeling ([2]; 50 mg/kg oral): 36.6 ± 0.1 °C | Body temperature 4 hours after modeling ([2]; 50 mg/kg oral): 37.4 ± 0.1 °C | Body temperature 6 hours after modeling ([2]; 50 mg/kg oral): 37.5 ± 0.1 °C | Body temperature 8 hours after modeling ([2]; 50 mg/kg oral): 37.6 ± 0.1 °C | Effect on increase in body temperature of model rats ([2]; 50 mg/kg, 8 hours after modeling): significantly inhibit the increase in body temperature | Epilepsy grade II incubation period, comparison with model group ([3]; 50 mg/kg): statistically different from the model group | Epilepsy grade III incubation period, comparison with model group ([3]; 50 mg/kg): statistically different from the model group | Grade IV seizure rate ([3]; 50 mg/kg gavage): 70% | mortality rate ([3]; 50 mg/kg gavage): 0 | Number of deaths ([3]; 50 mg/kg gavage): 0 | Number of Grade IV cases ([3]; 50 mg/kg gavage): 7 | Level II onset incubation period ([3]; 50 mg/kg): 95 ± 3 s | Level III onset incubation period ([3]; 50 mg/kg): 162 ± 5 s | Level IV onset incubation period ([3]; 50 mg/kg): 974 ± 192 s | Epilepsy grade III incubation period, comparison with model group ([3]; 200 mg/kg): statistically different from the model group | Grade IV seizure rate ([3]; 200 mg/kg gavage): 90% | mortality rate ([3]; 200 mg/kg gavage): 10% | Number of deaths ([3]; 200 mg/kg gavage): 1 | Number of Grade IV cases ([3]; 200 mg/kg gavage): 9 | Level II onset incubation period ([3]; 200 mg/kg): 95 ± 6 s | Level III onset incubation period ([3]; 200 mg/kg): 184 ± 17 s | Level IV onset incubation period ([3]; 200 mg/kg): 765 ± 135 s

— patent publication US12098176B2, “Keratin BD-4, preparation method, and pharmaceutical composition and use thereof” (Institute of Materia Medica, Chinese Academy of Medical …, priority 2019, dated 2024)
